Measured values as given in publication PMC12000298 (Communications Biology, 2025).
Where two headings read alike, the source gives them in different places.

B1: Ube2G2 (untagged, from 6xHis-SUMO-Ube2G2) (enzyme)
chain: MAGTALKRLMAEYKQLTLNPPEGIVAGPMNEENFFEWEALIMGPEDTCFEFGVFPAILSFPLDYPLSPPKMRFTCEMFHPNIYPDGRVCISILHAPGDDPMGYESSAERWSPVQSVEKILLSVVSMLAEPNDESGANVDASKMWRDDREQFYKIAKQIVQKSLGL

Assays:
Test in all cases: SEC
[1] = biological target: B1
[2] = biological target: GST-Gp78c (aa309-643, RING-CUE-G2BR) (UniProt Q9UKV5 309-643)
[3] = biological target: B1; remark: listed apart in the source

Sequence of GST-Gp78c (aa309-643, RING-CUE-G2BR) (Q9UKV5 309-643): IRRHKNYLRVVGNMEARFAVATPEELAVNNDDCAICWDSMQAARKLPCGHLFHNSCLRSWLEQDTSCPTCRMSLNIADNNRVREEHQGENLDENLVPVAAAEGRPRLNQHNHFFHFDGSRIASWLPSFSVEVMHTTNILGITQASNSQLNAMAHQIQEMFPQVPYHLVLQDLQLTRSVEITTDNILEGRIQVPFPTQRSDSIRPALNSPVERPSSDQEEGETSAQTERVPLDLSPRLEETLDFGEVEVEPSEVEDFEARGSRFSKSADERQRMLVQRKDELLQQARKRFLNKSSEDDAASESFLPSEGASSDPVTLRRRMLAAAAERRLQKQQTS

binding result [1] | Binder | further results
binds | GGSSSADERQRMLVQRKDELLQQARKRFLNKS [SBP-His6-G2BR^Gp78] | 
binds | GGSSSSWARQESLQERKQALYEYARRRFTER [SBP-His6-G2BR^AUP1] | 
 | B1 | binding result [2]: binds
 | CUE-G2BR^AUP1 (AUP1 C-terminal region, aa292-410) (domain or fragment) SPDVQLATLAQRVKEVLPHVPLGVIQRDLAKTGCVDLTITNLLEGAVAFMPEDITKGTQSLPTASASKFPSSGPVTPQPTALTFAKSSWARQESLQERKQALYEYARRRFTERRAQEAD | binding result [3]: binds
